Source: patent publication US8212003

Tested on: fusion protein SFH (SAK-GSIEGR-HV2)

Substance: blood coagulant factor FXa
- Anticoagulant activities (clot method) after cleavage of SFH with 0.2 U of FXa for 10 min at 37° C.: 2560 ATU
